The data set can be described thus: self-splicing fitness, log relative to wild type (ln ratio); higher = more splicing; Tetrahymena group I intron in knt gene, E. coli kanamycin selection, DiMSum; sequences stand for … in CUCUCU…GGAGGGAAAAGUUAUCAGGCAUGCACCUGGUAGCUAGUCUUUAAACCAAUAGAUUGCAUCGGUUUAAAAGGCAAGACCGUCAAAUUGCGGGAAAGGGGUCAACAGCCGUUCAGUACCAAGUCUCAGGGGAAACUUUGAGAUGGCCUUGCAAAGGGUAUGGUAAUAAGCUGACGGACAUGGUCCUAACCACGCAGCCAAGUCCUAAGUCAACAGAUCUUCUGUUGAUAUGGAUGCAGUUCACAGACUAAAUGUCGGUCGGGGAAGAUGUAUUCUUCUCAUAAGAUAUAGUCGGACCUCUCCUUAAUGGGAGCUAGCGGAUGAAGUGAUGCAACACUGGAGCCGCUGGGAACUAAUUUGUAUGCGAAAGUAUAUUGAUUAGUUUUGGAGUACUCGUGGUCG
The method, boiled down: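 Six replicate transformations of E. coli BL21(DE3) with a pET-22b(+) library were grown overnight at 37°C or 30°C. The library randomised all eight P1ex-region intron nucleotides, the intron lying in the knt kanamycin-resistance gene, and plates were LB agar with or without 25 μg/mL kanamycin plus 100 μg/mL carbenicillin, 50 μM IPTG and 0.2% rhamnose. Pooled colonies were amplicon-sequenced on an Illumina HiSeq 2500, and fitness is the DiMSum error-weighted combination of wild-type-normalised replicate fold changes, kanamycin versus none.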

± gives the uncertainty stated by the source.

GGGUAGCAAUAUUACGCUGU: the “self-splicing fitness (ln)” value is -3.54 ± 0.38 (30 °C) and -2.32 ± 0.29 (37 °C).

As to GUUAAGCAAUAUUACGAUUG, the “self-splicing fitness (ln)” value is -3.09 ± 0.34 (30 °C) and -1.63 ± 0.34 (37 °C). The like results for GGGGAGCAAUAUUACGCGUG were, in that order, -1.75 ± 0.13 and -1.96 ± 0.17. The like results for CAUGAGCAAUAUUACGCGGU were, in that order, -4.59 ± 0.33 and -2.33 ± 0.21. For UACGAGCAAUAUUACGUGCG, in that order: -3.07 ± 0.15 and -1.97 ± 0.18. In the case of GUACAGCAAUAUUACGCGGG, the “self-splicing fitness (ln)” value was -1.5 ± 0.092 (30 °C) and -2.71 ± 0.15 (37 °C).

As for UGUGAGCAAUAUUACGAUUA, the “self-splicing fitness (ln)” value is -1.17 ± 0.22 (30 °C) and -1.53 ± 0.2 (37 °C). For CUACAGCAAUAUUACGACCA, in that order: -2.7 ± 0.3 and -2.31 ± 0.35. For AGAAAGCAAUAUUACGAAUU, in that order: -0.791 ± 0.089 and -1.32 ± 0.11. For CCUCAGCAAUAUUACGAAGA, in that order: -3.71 ± 0.3 and -2.31 ± 0.25. UACCAGCAAUAUUACGCCGG: the “self-splicing fitness (ln)” value was -3.31 ± 0.22 (30 °C) and -3.14 ± 0.37 (37 °C). Take CAUUAGCAAUAUUACGUGAG: the “self-splicing fitness (ln)” value is -1.55 ± 0.14 (30 °C) and 0.776 ± 0.12 (37 °C).

For the sequence AUGCAGCAAUAUUACGUUAU, the “self-splicing fitness (ln)” value was -2.45 ± 0.079 (30 °C) and -1.24 ± 0.078 (37 °C). For GCGUAGCAAUAUUACGCUCG, in that order: -3.75 ± 0.32 and -1.08 ± 0.2.

Regarding GCUCAGCAAUAUUACGAGUC, for the setting “30 °C”, the “self-splicing fitness (ln)” value was -4.08 ± 0.26. As for AGGGAGCAAUAUUACGGCAU, the “self-splicing fitness (ln)” value is -3.2 ± 0.2 (30 °C) and -2.46 ± 0.23 (37 °C). The like results for AUCCAGCAAUAUUACGGGGU were, in that order, -4.35 ± 0.18 and -2.19 ± 0.13.

With AAGUAGCAAUAUUACGAGUC, the “self-splicing fitness (ln)” value by setting is: (30 °C) -2.53 ± 0.18; (37 °C) -2.47 ± 0.3. For AUGCAGCAAUAUUACGGGCA, in that order: -0.699 ± 0.11 and 0.227 ± 0.12.

As to UCCCAGCAAUAUUACGUUAC, the “self-splicing fitness (ln)” value was -3.88 ± 0.22 (30 °C) and -2.72 ± 0.27 (37 °C). The like results for UUUUAGCAAUAUUACGUUAA were, in that order, -2.45 ± 0.37 and -2.52 ± 0.48. The like results for CAUUAGCAAUAUUACGUUCA were, in that order, -2.33 ± 0.2 and -2.35 ± 0.24.

AUGUAGCAAUAUUACGCCGU: the “self-splicing fitness (ln)” value reads like this: (30 °C) -1.43 ± 0.14; (37 °C) -0.29 ± 0.14. For AUCAAGCAAUAUUACGAGCC, in that order: -3.07 ± 0.32 and -1.23 ± 0.31. The like results for GGCAAGCAAUAUUACGAAUG were, in that order, -2.14 ± 0.15 and -1.45 ± 0.16. The like results for UGUCAGCAAUAUUACGAGGG were, in that order, -3.72 ± 0.2 and -1.37 ± 0.14. In the case of AGGAAGCAAUAUUACGCGAA, the “self-splicing fitness (ln)” value is -1.83 ± 0.12 (30 °C) and -1.38 ± 0.14 (37 °C). For UUUAAGCAAUAUUACGUAGG, in that order: -0.802 ± 0.058 and -0.287 ± 0.086. CACCAGCAAUAUUACGUGUU: the “self-splicing fitness (ln)” value was -4.11 ± 0.14 (30 °C) and -2.67 ± 0.1 (37 °C). Turning to CGACAGCAAUAUUACGAAUA, the “self-splicing fitness (ln)” value (30 °C) is -2.16 ± 0.18 and the “self-splicing fitness (ln)” value (37 °C) was -3.12 ± 0.3.

AAUUAGCAAUAUUACGAUUA: the “self-splicing fitness (ln)” value reads like this: (30 °C) -0.375 ± 0.15; (37 °C) -0.559 ± 0.15. The like results for UACCAGCAAUAUUACGUUGC were, in that order, -4.31 ± 0.32 and -2.6 ± 0.25. For UGUCAGCAAUAUUACGGAAG, in that order: -2.37 ± 0.14 and -0.569 ± 0.15. The like results for UCCCAGCAAUAUUACGUGCG were, in that order, -3.71 ± 0.15 and -2.93 ± 0.17. For the sequence AAUAAGCAAUAUUACGACCG, the “self-splicing fitness (ln)” value runs as follows: (30 °C) -0.621 ± 0.12; (37 °C) 0.329 ± 0.16. In the case of CUUGAGCAAUAUUACGAUUU, the “self-splicing fitness (ln)” value (37 °C) is -2.09 ± 0.39.

In the case of AUUAAGCAAUAUUACGGGAG, the “self-splicing fitness (ln)” value was -3.06 ± 0.23 (30 °C) and -1.89 ± 0.18 (37 °C). The like results for CAAAAGCAAUAUUACGCCUG were, in that order, -1.07 ± 0.13 and -0.273 ± 0.13. The like results for CGGGAGCAAUAUUACGGUUA were, in that order, -3.42 ± 0.25 and -2.69 ± 0.29. For GAUCAGCAAUAUUACGCUCU, in that order: -1.3 ± 0.12 and -0.735 ± 0.15. For the sequence ACCCAGCAAUAUUACGAGGG, the “self-splicing fitness (ln)” value runs as follows: (30 °C) -3.43 ± 0.15; (37 °C) -2.47 ± 0.17.

With CACUAGCAAUAUUACGCCAA, the “self-splicing fitness (ln)” value reads like this: (30 °C) -2.23 ± 0.16; (37 °C) -2.89 ± 0.24.

CGUCAGCAAUAUUACGUCCU: the “self-splicing fitness (ln)” value (30 °C) is -1.88 ± 0.081 and the “self-splicing fitness (ln)” value (37 °C) was -1.27 ± 0.098.

In the case of AGAGAGCAAUAUUACGCCAA, the “self-splicing fitness (ln)” value is -2.71 ± 0.2 (30 °C) and -3.06 ± 0.43 (37 °C). Regarding UCUGAGCAAUAUUACGGAGU, the “self-splicing fitness (ln)” value (30 °C) is -2.86 ± 0.19 and the “self-splicing fitness (ln)” value (37 °C) is -2.57 ± 0.17. Take UUUAAGCAAUAUUACGUUGA: the “self-splicing fitness (ln)” value is -2.17 ± 0.23 (30 °C) and -1.5 ± 0.2 (37 °C).

On to ACGUAGCAAUAUUACGAAUC, for which the “self-splicing fitness (ln)” value was -4.01 ± 0.3 (30 °C) and -2.74 ± 0.3 (37 °C).

Turning to GAGUAGCAAUAUUACGGCUU, the “self-splicing fitness (ln)” value is -2.2 ± 0.12 (30 °C) and -1.78 ± 0.15 (37 °C).

As to CGACAGCAAUAUUACGUAAG, the “self-splicing fitness (ln)” value was -0.425 ± 0.08 (30 °C) and 0.126 ± 0.095 (37 °C). For CGUUAGCAAUAUUACGGAAC, in that order: -3.05 ± 0.48 and -2.4 ± 0.41. The like results for GCCCAGCAAUAUUACGCAUA were, in that order, -1.61 ± 0.093 and -0.164 ± 0.088. For UUCAAGCAAUAUUACGGCCC, in that order: -1.49 ± 0.17 and -0.618 ± 0.18. With GGGUAGCAAUAUUACGUCGG, the “self-splicing fitness (ln)” value is -3.8 ± 0.2 (30 °C) and -1.68 ± 0.17 (37 °C).

For GCAUAGCAAUAUUACGUUCC, the “self-splicing fitness (ln)” value (37 °C) is -2.25 ± 0.31. On to CGGGAGCAAUAUUACGCUGU, for which the “self-splicing fitness (ln)” value reads like this: (30 °C) -2.76 ± 0.33; (37 °C) -2.43 ± 0.34. The like results for AUUCAGCAAUAUUACGAUUC were, in that order, -1.62 ± 0.059 and -0.407 ± 0.077. Regarding GAUAAGCAAUAUUACGAAGU, the “self-splicing fitness (ln)” value (30 °C) is -2.4 ± 0.18 and the “self-splicing fitness (ln)” value (37 °C) is -1.15 ± 0.23.

GCCCAGCAAUAUUACGGUGA: the “self-splicing fitness (ln)” value (30 °C) is -0.302 ± 0.045 and the “self-splicing fitness (ln)” value (37 °C) was 0.206 ± 0.056. With GAAAAGCAAUAUUACGAUAG, the “self-splicing fitness (ln)” value was -3.28 ± 0.15 (30 °C) and -1.69 ± 0.15 (37 °C).

Regarding AGGCAGCAAUAUUACGACUU, the “self-splicing fitness (ln)” value runs as follows: (30 °C) -0.0645 ± 0.048; (37 °C) 0.187 ± 0.065. Turning to ACACAGCAAUAUUACGGCAG, the “self-splicing fitness (ln)” value was -1.29 ± 0.067 (30 °C) and -0.371 ± 0.082 (37 °C).

As for ACACAGCAAUAUUACGUCCG, the “self-splicing fitness (ln)” value was -1.3 ± 0.079 (30 °C) and 0.213 ± 0.11 (37 °C). AGCUAGCAAUAUUACGCUUG: the “self-splicing fitness (ln)” value (30 °C) is -3.96 ± 0.26 and the “self-splicing fitness (ln)” value (37 °C) is -2.9 ± 0.25. The like results for CUGCAGCAAUAUUACGGCGA were, in that order, -0.954 ± 0.14 and -0.847 ± 0.13. The like results for CCAAAGCAAUAUUACGAUUA were, in that order, -3.39 ± 0.2 and -3.27 ± 0.25. Regarding ACACAGCAAUAUUACGCGUC, the “self-splicing fitness (ln)” value is, setting by setting: (30 °C) -3.69 ± 0.11; (37 °C) -3.32 ± 0.15. For UUUAAGCAAUAUUACGUGUU, in that order: -3.32 ± 0.2 and -2.57 ± 0.22.

Turning to UGCUAGCAAUAUUACGCAUA, the “self-splicing fitness (ln)” value (30 °C) is -2.58 ± 0.18 and the “self-splicing fitness (ln)” value (37 °C) was -1.37 ± 0.14. The like results for UGCAAGCAAUAUUACGCUCC were, in that order, -0.565 ± 0.2 and -1.37 ± 0.34. For GUGAAGCAAUAUUACGCUGC, in that order: -3.05 ± 0.21 and -2.19 ± 0.21.

Consider GACCAGCAAUAUUACGUUAA, for which the “self-splicing fitness (ln)” value is, setting by setting: (30 °C) -1.13 ± 0.093; (37 °C) -0.35 ± 0.1.

In the case of CAUAAGCAAUAUUACGCCUA, the “self-splicing fitness (ln)” value is -2.46 ± 0.35 (30 °C) and -0.984 ± 0.21 (37 °C). The like results for CUAAAGCAAUAUUACGGGAG were, in that order, -0.542 ± 0.056 and 0.188 ± 0.077. The like results for GCACAGCAAUAUUACGCCUA were, in that order, -0.82 ± 0.13 and -0.373 ± 0.11.

AAGUAGCAAUAUUACGCCAA: the “self-splicing fitness (ln)” value was -2.53 ± 0.24 (30 °C) and -1.55 ± 0.23 (37 °C).

The record behind these values is the supplement of paper PMC7877785.
